Ends that are not written are not given here.
Biological target: T1, conjugate of a peptide consisting of an amino acid sequence represented by SEQ ID NO:1 (SSVLYGGPPSAA) and KLH (also: conjugated to KLH with glutaraldehyde, site and number per carrier not given here)
T1 construct: Synthetic peptide (Fmoc solid phase) cross-linked to KLH by glutaraldehyde; also called antigenic substance; antigen
T1 peptide: SSVLYGGPPSAA
Experiment: ELISA of hybridoma culture supernatant on plate coated with the peptide-KLH conjugate, fluorescence read-out
Method: A buffer solution containing the above-mentioned antigenic substance (5 mg) (Baicarbonate buffer: 100 mM NaHCO₃—NaOH, pH 9.2 to 9.5, the concentration of the peptide: 1 μg/mL) was added to a 96 well flat bottom plate in an amount of 50 μL per well, and allowed to stand for coating at room temperature for 2 hours. The plate was washed 3 times with wash buffer (PBST), and then blocking buffer (3% skim milk 1% BSA, PBS) was added in an amount of 200 to 250 μL/well to react at 4° C. for one full day, and then washed 3 times. Then the culture supernatant of hybridoma was added in an amount of 100 μL/well, which was allowed to react at 37° C. for 4 hours or at 4° C. for one full day. After the plate was washed 3 times, biotin-labeled anti-mouse IgG (SIGMA) diluted 10000 times with dilution buffer (10 mM Tris-HCl (pH 8.0), 0.9% (W/V) NaCl, 0.05% (W/V) Tween 20) was added in an amount of 50 μL/well, which was allowed to react at room temperature for 2 hours. […] Then washing was performed 6 times, and fluorescent substrate buffer (Attophos substrate buffer, Roche Diagnostics K.K.) was added in an amount of 50 μL/well, and the plate was shaded to allow fluorescence to develop. Fluorescence intensity was measured in CytoFluorII (PerSeptive Biosystems).

binding result: binds
B1: monoclonal antibody (SSVmAb) of Example 1, produced by hybridoma Mouse-Mouse hybridoma SSV-C 93-3 (NITE BP-972) (antibody, IgG1, V domains shown)
VH: EIQLQQSGAELVKPGASVKISCKASGYSFTGYNMNWVKQSHGKSLEWIGNINPYYGSTSYNQKFKGKATLTVDKSSSTAYMQLNSLTSEDSAVYYCARSPYYSNYWRYFDYWGQGTTLTVSS
VL: QIVLSQSPAILSASPGEKVTMTCRASSSVSYMHWYQQKPGSSPKPWIYATSNLASGVPARFSGSGSGTSYSLTISRVEAEDAATYYCQQWSSNPWTFGGGTKLEIK
notes: Mouse hybridoma antibody

From patent US20150079090A1 (JOSAI UNIVERSITY, published 2015)
